According to patent publication US20060074222A1:

How the values were obtained:
[1] = target: Pin1 (wild-type, SEQ ID NO:1) (human) (UniProt Q13526); experiment: cell-based or functional assay
[2] = target: Pin1 R14A (SEQ ID NO:2) (human) (UniProt Q13526); experiment: cell-based or functional assay

## phosphokinase A (PKA) (enzyme)
[1]
  MALDI-TOF mass increase after PKA treatment: 160 Daltons
[2]
  MALDI-TOF mass increase after PKA treatment: 90 Daltons
